{
  "source": "paper PMC2912378",
  "about": "(PLoS ONE, 2010)",
  "target": "T1, RelA (p65) (endogenous, BV-2 microglial cells) (mouse (endogenous in BV-2), UniProt Q04207 1-549)",
  "T1 construct": "NF-kappa B family member RelA (p65), endogenous in the murine microglial cell line BV-2; source: endogenous, BV-2 whole cell lysate",
  "T1 sequence (Q04207 whole entry)": "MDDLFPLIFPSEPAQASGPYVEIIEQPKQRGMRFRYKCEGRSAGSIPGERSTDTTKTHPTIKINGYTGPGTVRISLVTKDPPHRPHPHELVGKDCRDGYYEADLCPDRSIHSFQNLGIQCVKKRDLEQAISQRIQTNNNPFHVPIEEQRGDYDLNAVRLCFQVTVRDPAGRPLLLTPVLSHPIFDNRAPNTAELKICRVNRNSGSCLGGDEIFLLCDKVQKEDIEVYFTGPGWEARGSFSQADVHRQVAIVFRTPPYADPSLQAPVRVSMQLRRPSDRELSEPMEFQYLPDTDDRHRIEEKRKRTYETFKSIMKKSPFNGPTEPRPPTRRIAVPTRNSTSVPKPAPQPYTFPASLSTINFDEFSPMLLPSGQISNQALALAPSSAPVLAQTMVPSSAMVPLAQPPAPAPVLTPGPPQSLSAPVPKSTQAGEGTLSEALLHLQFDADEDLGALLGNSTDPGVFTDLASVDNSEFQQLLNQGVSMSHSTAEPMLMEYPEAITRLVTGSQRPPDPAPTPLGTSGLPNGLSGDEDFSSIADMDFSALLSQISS",
  "experiment": "co-IP; whole cell lysates of BV-2 cells, untreated or treated with Tat (100nM) for 4h or 8h; immunoprecipitation with a RelA-specific antibody and Protein A/G+ agarose beads, 4°C, washed with ELB lysis buffer; immunoblot with RelB-specific antibody; densitometry normalised to precipitated RelA",
  "settings": "partners not purified",
  "data": [
    {"binder": "RelB (endogenous, BV-2 microglial cells) (natural protein, mouse (endogenous in BV-2), UniProt Q04863 1-558, looked up, NF-kappa B family member RelB, endogenous in the murine microglial cell line BV-2; source: endogenous, BV-2 whole cell lysate) MPSRRAARESAPELGALGSSDLSSLSLTVSRTTDELEIIDEYIKENGFGLDGTQLSEMPRLVPRGPASLSSVTLGPAAPPPPATPSWSCTLGRLVSPGPCPRPYLVITEQPKQRGMRFRYECEGRSAGSILGESSTEASKTLPAIELRDCGGLREVEVTACLVWKDWPHRVHPHSLVGKDCTDGVCRVRLRPHVSPRHSFNNLGIQCVRKKEIEAAIERKIQLGIDPYNAGSLKNHQEVDMNVVRICFQASYRDQQGHLHRMDPILSEPVYDKKSTNTSELRICRINKESGPCTGGEELYLLCDKVQKEDISVVFSTASWEGRADFSQADVHRQIAIVFKTPPYEDLEISEPVTVNVFLQRLTDGVCSEPLPFTYLPRDHDSYGVDKKRKRGLPDVLGELSSSDPHGIESKRRKKKPVFLDHFLPGHSSGLFLPPSALQPADSDFFPASISLPGLEPPGGPDLLDDGFAYDPSAPTLFTMLDLLPPAPPLASAVVGSGGAGATVVESSGPEPLSLDSFAAPGPGDVGTASLVGSNMFPNQYREAAFGGGLLSPGPEAT", "values": [
      {"measurement": "fold increase of co-precipitated RelB (normalised to precipitated RelA) with Tat against untreated cells", "value": 4, "unit": "fold"}
    ]}
  ]
}
